Assay results as given in the supplement of paper PMC10724198.
± gives the standard deviation of the averaged measurements.

Tested on: Saccharomyces cerevisiae
Assay: protein stability index of tFT-peptide fusion (C-terminal peptide) (PSI (0-1 scale)); higher = more stable (slower turnover)
Conditions: temperature: 30 C
Method: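 MPS profiling in S. cerevisiae of the yeast C-terminome library: the last 12 aa of each annotated ORF are fused to the C-terminus of a sfGFP-mCherry timer, after a GGGS linker. Cells are FACS-sorted into 8 mCherry/sfGFP bins and deep-sequenced. PSI runs from 0 (unstable) to 1 (stable); wild type and das1Δ backgrounds, two technical replicates each.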

[1] = genetic background: das1 deletion

Sequence | protein stability index [1] | protein stability index (genetic background: wild type)
DQPFYKSLFSRK [HXT1 C-terminal 12 aa] | 0.7117 ± 0.0036 | 0.685 ± 0.053
DRDGCVNAVLLV [NSA2 C-terminal 12 aa] | 0.701 ± 0.012 | 0.6768 ± 0.0054
DRWLNRKALNKG [BUD21 C-terminal 12 aa] | 0.695 ± 0.031 | 0.676 ± 0.021
DSATLVNVHIKR [SPR3 C-terminal 12 aa] | 0.7064 ± 0.0062 | 0.7269 ± 0.0019
DSNTGGIIASIF [YKL104W-A C-terminal 12 aa] | 0.702 ± 0.027 | 0.696 ± 0.027
DSSKYSLGNNSS [SUR1 C-terminal 12 aa] | 0.713 ± 0.025 | 0.686 ± 0.016
DTFIPSTLQSVT [YNL089C C-terminal 12 aa] | 0.702 ± 0.026 | 0.678 ± 0.015
DTVKILTELFNL [SEC53 C-terminal 12 aa] | 0.707 ± 0.011 | 0.732 ± 0.062
DTVPPEKLMKFV [RAX2 C-terminal 12 aa] | 0.7111 ± 0.0024 | 0.66 ± 0.027
DVEELREQLENC [AIM7 C-terminal 12 aa] | 0.692 ± 0.0025 | 0.723 ± 0.018
DVQGICLRNDKK [SLX4 C-terminal 12 aa] | 0.684 ± 0.011 | 0.651 ± 0.008
DYDEEDPYEDPF [IKI1 C-terminal 12 aa] | 0.731 ± 0.042 | 0.6905 ± 0.0059
EADMKTKLDISD [NBP2 C-terminal 12 aa] | 0.695 ± 0.015 | 0.696 ± 0.023
EANFWTAALEYE [THI21 C-terminal 12 aa] | 0.7334 ± 0.0016 | 0.6857 ± 0.003
EANLKVLNGLEI [YPR148C C-terminal 12 aa] | 0.687 ± 0.024 | 0.667 ± 0.011
EAQLSCNYEPLP [COS10 C-terminal 12 aa] | 0.707 ± 0.021 | 0.673 ± 0.0098
ECAPVPPAVRSY [SDH9 C-terminal 12 aa] | 0.683 ± 0.011 | 0.6797 ± 0.0018
ECYLITILWLHK [TDA2 C-terminal 12 aa] | 0.256 ± 0.031 | 0.289 ± 0.0072
EDKEIVDGKVLK [TEF4 C-terminal 12 aa] | 0.663 ± 0.016 | 0.674 ± 0.023
EDSHYGNAKKVT [FPS1 C-terminal 12 aa] | 0.708 ± 0.0097 | 0.688 ± 0.011
EDVQLALNKHMN [YAP1 C-terminal 12 aa] | 0.685 ± 0.01 | 0.69 ± 0.0072

Sequence | protein stability index [1] | protein stability index (genetic background: wild type)
EEESTTSENLHF [RSM25 C-terminal 12 aa] | 0.699 ± 0.0097 | 0.69 ± 0.025
EELLNQPPEEQI [GPX1 C-terminal 12 aa] | 0.712 ± 0.027 | 0.766 ± 0.093
EELRPDTLESEL [REC107 C-terminal 12 aa] | 0.683 ± 0.0093 | 0.6742 ± 0.0014
EEMEEFKKLVMG [MIC19 C-terminal 12 aa] | 0.7037 ± 0.0043 | 0.6922 ± 0.00094
EEQRNHLKDLYG [SLU7 C-terminal 12 aa] | 0.6968 ± 0.0037 | 0.702 ± 0.011
EERKDALANNIK [CCS1 C-terminal 12 aa] | 0.6794 ± 0.0017 | 0.688 ± 0.07
EEVETVSEHVKV [DPA10 C-terminal 12 aa] | 0.6781 ± 0.00078 | 0.691 ± 0.038
EFLTNSILTRRK [COQ1 C-terminal 12 aa] | 0.721 ± 0.048 | 0.651 ± 0.065
EFVVQSLRSRNQ [YFR018C C-terminal 12 aa] | 0.7231 ± 0.0049 | 0.703 ± 0.035
EGEHEQVLENFQ [GUT1 C-terminal 12 aa] | 0.702 ± 0.014 | 0.676 ± 0.032
EGFIAKVMCCLD [RFC5 C-terminal 12 aa] | 0.606 ± 0.0065 | 0.599 ± 0.021
EGWNSDNVYKLS [CYC2 C-terminal 12 aa] | 0.7213 ± 0.0026 | 0.598 ± 0.0034
EHDKSPLSRKRQ [SFI1 C-terminal 12 aa] | 0.708 ± 0.015 | 0.703 ± 0.035
EHRMLKLILNSG [NTO1 C-terminal 12 aa] | 0.694 ± 0.017 | 0.644 ± 0.013
EIKEMLVTLINK [SRL2 C-terminal 12 aa] | 0.6725 ± 0.002 | 0.652 ± 0.028
EIVGRYVVETSK [ADH5 C-terminal 12 aa] | 0.678 ± 0.028 | 0.6821 ± 0.0047
EKCSYYFLSRAH [YNL017C C-terminal 12 aa] | 0.6866 ± 0.0041 | 0.66 ± 0.023
EKGIFAGDINSD [COX12 C-terminal 12 aa] | 0.7005 ± 0.0047 | 0.726 ± 0.029
EKKDTEGDVDMD [SSE1 C-terminal 12 aa] | 0.678 ± 0.0095 | 0.666 ± 0.011
EKKRVLNAVCGL [YLR412C-A C-terminal 12 aa] | 0.69 ± 0.016 | 0.658 ± 0.021
EKPPKEEPESDI [TIM54 C-terminal 12 aa] | 0.711 ± 0.032 | 0.666 ± 0.0042

Sequence | protein stability index [1] | protein stability index (genetic background: wild type)
EKVRCIKKYQSW [APD1 C-terminal 12 aa] | 0.726 ± 0.0064 | 0.727 ± 0.034
ELPNGKVIYSRK [ERJ5 C-terminal 12 aa] | 0.687 ± 0.067 | 0.745 ± 0.025
ELTSSDDCKDFI [YDR124W C-terminal 12 aa] | 0.7025 ± 0.0028 | 0.652 ± 0.034
EMLGDKVNKKGI [SOK1 C-terminal 12 aa] | 0.727 ± 0.0085 | 0.67 ± 0.012
EMNNIIAASRRH [RPL36A C-terminal 12 aa] | 0.701 ± 0.0077 | 0.713 ± 0.048
ENAEKQRTLKKN [RIA1 C-terminal 12 aa] | 0.6927 ± 0.00075 | 0.71 ± 0.045
ENAHMQSAESCN [YLR236C C-terminal 12 aa] | 0.682 ± 0.011 | 0.717 ± 0.074
ENASQLPHPSQK [ZIM17 C-terminal 12 aa] | 0.698 ± 0.024 | 0.691 ± 0.021
ENDPWKVVRLAP [PDX3 C-terminal 12 aa] | 0.711 ± 0.019 | 0.715 ± 0.011
ENLVKQEAINGS [YAF9 C-terminal 12 aa] | 0.6823 ± 0.0044 | 0.6834 ± 0.0042
ENVDSPRKSNQL [SLM2 C-terminal 12 aa] | 0.69 ± 0.018 | 0.678 ± 0.014
EPFGPKMSTVQV [YHB1 C-terminal 12 aa] | 0.6732 ± 0.0032 | 0.663 ± 0.0085
EQLEEEFVRQEH [OSW7 C-terminal 12 aa] | 0.7319 ± 0.00083 | 0.7301 ± 0.0026
EQLEQDDGRKGG [LSM12 C-terminal 12 aa] | 0.682 ± 0.024 | 0.669 ± 0.023
EQNAALGQGLGR [TIM9 C-terminal 12 aa] | 0.70792 ± 0.00034 | 0.692 ± 0.0086
EQNLEALAKSFF [BEM4 C-terminal 12 aa] | 0.734 ± 0.023 | 0.697 ± 0.029
EQSEQPEQHQDK [RPN10 C-terminal 12 aa] | 0.697 ± 0.018 | 0.666 ± 0.01
ERKPLDFLRTAK [MRPL39 C-terminal 12 aa] | 0.6743 ± 0.0021 | 0.659 ± 0.0088
ESAKQRRDKQKN [ATG38 C-terminal 12 aa] | 0.7096 ± 0.003 | 0.686 ± 0.02
ESLQKNIKIETK [MUM3 C-terminal 12 aa] | 0.6981 ± 0.005 | 0.671 ± 0.051
ESVSYLFTHAPV [PRS2 C-terminal 12 aa] | 0.734 ± 0.0093 | 0.711 ± 0.023

Sequence | protein stability index [1] | protein stability index (genetic background: wild type)
ESYRDDSIEAED [NCR1 C-terminal 12 aa] | 0.6933 ± 0.001 | 0.7157 ± 0.0012
ETIAEEMDSVHT [YAL064W-B C-terminal 12 aa] | 0.682 ± 0.012 | 0.662 ± 0.018
ETNFWTAALEYE [THI20 C-terminal 12 aa] | 0.723 ± 0.011 | 0.759 ± 0.034
ETVGYEAYLENK [ADE2 C-terminal 12 aa] | 0.685 ± 0.014 | 0.661 ± 0.013
EVDIDSLLAKLN [RLP7 C-terminal 12 aa] | 0.7114 ± 0.0065 | 0.407 ± 0.023
EVLEVAEKFKEE [DOT5 C-terminal 12 aa] | 0.696 ± 0.011 | 0.683 ± 0.018
EYHQEFLHKHVR [CWC15 C-terminal 12 aa] | 0.726 ± 0.035 | 0.662 ± 0.015
EYPWEKPKTLKF [SAM1 C-terminal 12 aa] | 0.7167 ± 0.00082 | 0.6917 ± 0.0068
FADTRPFDEIYR [ATP23 C-terminal 12 aa] | 0.73 ± 0.00073 | 0.727 ± 0.063
FAFVVVKQEFIH [BYE1 C-terminal 12 aa] | 0.521 ± 0.015 | 0.519 ± 0.0072
FASGKPIKKVKN [DYS1 C-terminal 12 aa] | 0.698 ± 0.0083 | 0.706 ± 0.016
FCKEKVYSKLLV [YNL103W-A C-terminal 12 aa] | 0.648 ± 0.015 | 0.559 ± 0.0084
FDTLIVHHFSSE [KHA1 C-terminal 12 aa] | 0.733 ± 0.01 | 0.682 ± 0.021
FEVMKFVNGLKV [RFX1 C-terminal 12 aa] | 0.5484 ± 0.0045 | 0.5872 ± 0.0047
FEWEDDESDEIA [ATG7 C-terminal 12 aa] | 0.7397 ± 0.004 | 0.706 ± 0.035
FFRLGWSTWLHY [YOR029W C-terminal 12 aa] | 0.502 ± 0.01 | 0.351 ± 0.0046
FFRQWWDIIQSK [YMR316C-A C-terminal 12 aa] | 0.7 ± 0.025 | 0.671 ± 0.012
FGDNSKHKTDKI [BOI2 C-terminal 12 aa] | 0.712 ± 0.042 | 0.685 ± 0.019
FIENVLKKRNMK [LIP5 C-terminal 12 aa] | 0.7195 ± 0.0041 | 0.7 ± 0.041
